In US6820011B2, “Three-dimensional structure of complement receptor type 2 and uses thereof” (The Regents of the University of Colorado, priority 2001, dated 2004):
Entries after “also recorded” stand apart in the source; their conditions may differ.

Target: T1, CR2 (Homo sapiens, UniProt P20023, G20A)
T1 sequence (P20023 20-153 G20A): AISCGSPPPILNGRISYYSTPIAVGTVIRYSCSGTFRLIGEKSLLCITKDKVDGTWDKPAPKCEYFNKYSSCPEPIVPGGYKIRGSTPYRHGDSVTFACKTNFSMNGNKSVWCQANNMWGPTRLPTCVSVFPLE
Assay: native gel shift assay of the binding between CR2 and C3d wild type or mutants
Details: for interaction with CR2 (shift of C3d band to the complex form): 6% native polyacrylamide gel, same C3d concentration, increasing amount of CR2, compared with wild type C3d
Source text: Based on the complex structure, mutagenesis of C3d around the interface to disrupt CR2 binding was predicted to be difficult. This is because the interaction between CR2 and C3 d involves mostly main-chain H-bonding, and the side chain residues play relatively small roles in the binding. However, to confirm the accuracy of the CR2-C3d interaction seen in this co-crystal structure, two informative C3d mutants were constructed. In mutant 170 (mt170; SEQ ID NO:8), residue Asn170 was changed to Arg. Asn170 is located on H7 of C3d and is the only residue on C3d that more or less points directly toward CR2 in the interface (FIG. 3E). Asn170 also packs directly with Tyr81 of CR2 as well as forms an H-bond with CR2 (Lys100) through a water molecule (FIG. 3E).
Briefly, FIGS. 4A and 4B show a native gel shift assay of the binding between CR2 and C3d wild type (wt) or mutants (mt). […] The C3d band will be shifted to the upper part of the gel when it forms a complex with CR2. The C3d concentration (for both wt and mt) is the same throughout lanes 1-12. The CR2 added to each corresponding lanes for wt and mt C3d was also the same, e.g. same amount of CR2 was added to the C3d samples in lane 2, 6 and 10, or in lanes 4, 8 and 12. […] The same conclusion can be drawn by comparing the intensity of the bands of the complexes containing the wt, mt115 and mt170. FIG. 4B is a graphical representation showing the intensity changes of the complex bands (measured by densitometry) as CR2 concentration increases from lanes 2 to 4 (wt), or lanes 6 to 8 (mt115), or lanes 10 to 12 (mt170).
The result shown in this experiment is consistent with that predicted by the interaction interface seen in the complex structure. […] This is consistent with the complex structure in that all these three residues, even though located within the interface area, have their side chains pointing sideways and are not involved in the direct contact with CR2. The side chain of Glu117, however, participates in the Zn coordination. […] The coordinated Zn in the structure, therefore, could simply come from the crystallization buffer which contained ZnAcetate.

Row | Substance | interaction with CR2 (shift of C3d band to the complex form) | apparent affinity for CR2 from intensity of the complex bands (densitometry) (as CR2 concentration increases, FIG. 4B)
1 | mt115: C3d mutant Gln105Ala, Leu116Ala, Glu117Ala | completely shifted to the complex form; also recorded: no obvious effect on CR2 binding | –
2 | mt170: C3d mutant, residue Asn170 changed to Arg (SEQ ID NO:8) | clearly less strong; also recorded: still contains an obvious C3d band | less apparent affinity for CR2 than wt and mt115
3 | wt: wild type human C3d (SEQ ID NO:7), CR2 ligand [reference compound] | completely shifted to the complex form | –
